Results as given in publication PMC7835349 (Communications Biology, 2021).
“And” between values parts separate entries of the source, which are not always exact repeats. Equal entries are not always repeated.

What was measured:
[1] = Plasma pharmacokinetics after IV bolus in C.B-17 SCID mouse; assay type: in vivo; conditions: mouse, at 10 mg/kg or equivalent
Protocol: Pharmacokinetic studies were carried out in the female C.B-17 SCID mouse. Either freshly prepared solutions of AZD4320 in 30% hydroxypropyl-β-cyclodextrin or drug-dendrimer conjugates in phosphate buffered saline were injected as a bolus into the tail vein at dosing volume of 5 ml/kg. Blood samples were collected at different time points post dose and analysed as below.
Blood samples were collected from the jugular vein by venepuncture into K2EDTA (as anticoagulant) tubes. Immediately following collection into the K2EDTA tube the samples were mixed gently and kept on crushed ice until centrifugation. Within 30 mins of blood collection, each sample was centrifuged (1500 g for 10 min at 4 °C) to generate plasma which was kept on wet ice at all times in polypropylene tubes. Duplicate 50 μL aliquots were transferred immediately after centrifugation into uniquely labelled polypropylene tubes (‘released’ AZD4320) containing equivalent amount (50 μL) of 0.2 M citric acid solution, inverted 10 times and then stored in a freezer set to maintain a temperature of −80 °C, until analysis.
The concentrations of ‘total’ AZD4320 were determined in plasma by overnight incubation with hydrazine followed by protein precipitation with acetonitrile and subsequent liquid/liquid extraction. Liquid chromatography with mass spectrometric detection (LC-MS/MS, details in Supplementary Table 5) was used to quantitate both ‘released’ and ‘total’ AZD4320.
Sample analyses were performed in batches containing study samples, calibration standards at 10 concentration levels, QC samples at three concentration levels in duplicate and blank samples. The analytical run acceptance criteria for calibration standards and QC samples was that at least 75% of back-calculated concentrations for calibration standards and at least 2/3 of the QC samples (at least 50% at each concentration level) should be within ±20% (±25% at LLOQ) from nominal value.

cleaved caspase-3 (CC3) = assay: Cleaved caspase-3 in RS4;11 tumours by MSD ELISA; assay type: in vivo, C.B-17 SCID mouse
Protocol: Tumours were excised, snap frozen in liquid nitrogen and stored at –80 °C. Tumours were homogenised in lysis buffer containing protease and phosphatase inhibitors, protein concentration determined by Pierce BCA Protein Assay Kit and diluted in lysis buffer to a protein concentration of 0.4 μg/μL. Cleaved caspase-3 (CC3) was measured using the mesoscale cleaved caspase-3 (Asp175) assay whole cell lysate kit according to manufacturer’s instructions. Induction of CC3 was expressed as fold change of treated tumours over vehicle control.

telemetered dogs = assay: Conscious dog telemetry (QRS amplitude and other cardiovascular parameters, tolerability)
[2] = dog, AZD0466 10 mg/kg (3 mg/kg AZD4320 equivalent), 1 h infusion
[3] = dog, AZD0466 30 mg/kg (9 mg/kg AZD4320 equivalent), 1 h infusion
[4] = dog, AZD0466 60 mg/kg (18 mg/kg AZD4320 equivalent), 1 h infusion

For AZD4320-MIDA-PEG2100 [AZD0466], which “Total Concentration in Plasma as AZD4320, Mean (Fig S9)” value (shortened to “Total Concentration in Plasma”) ([1]; 1 hr) is on record?
Its value is 117.3 µg/mL.

What about the “Total Concentration in Plasma” value ([1]; 3 hr) of the same substance?
Its value is 49.1 µg/mL.

What about the “Total Concentration in Plasma” value ([1]; 9 hr) of the same substance?
The value was 36.3 µg/mL.

What about the “Total Concentration in Plasma” value ([1]; 20 hr) of the same substance?
The value was 8.0 µg/mL.

And the “CC3 PD fold over vehicle, individual tumours” value (“CC3 PD fold over vehicle” below) (cleaved caspase-3 (CC3); RS4;11, single dose AZD0466 34 mg/kg (10mg/kg AZD4320), 3 hr)?
Its value is 1.1 fold over vehicle (2×) and 0.9 fold over vehicle.

And the “CC3 PD fold over vehicle” value (cleaved caspase-3 (CC3); RS4;11, single dose AZD0466 34 mg/kg (10mg/kg AZD4320), 8 hr)?
The value was 1.1 fold over vehicle and 1.5 fold over vehicle and 1 fold over vehicle.

What about the “CC3 PD fold over vehicle” value (cleaved caspase-3 (CC3); RS4;11, single dose AZD0466 34 mg/kg (10mg/kg AZD4320), 24 hr) of the same substance?
The value was 12.2 fold over vehicle and 4.6 fold over vehicle and 5.3 fold over vehicle.

And the “CC3 PD fold over vehicle” value (cleaved caspase-3 (CC3); RS4;11, single dose AZD0466 34 mg/kg (10mg/kg AZD4320), 48 hr)?
Its value is 8.7 fold over vehicle and 9 fold over vehicle and 11 fold over vehicle.

And the “CC3 PD fold over vehicle” value (cleaved caspase-3 (CC3); RS4;11, single dose AZD0466 34 mg/kg (10mg/kg AZD4320), 72 hr)?
The value was 1.8 fold over vehicle and 1.4 fold over vehicle and 2.1 fold over vehicle.

What about the “CC3 PD fold over vehicle” value (cleaved caspase-3 (CC3); RS4;11, single dose AZD0466 103 mg/kg (30mg/kg AZD4320), 3 hr) of the same substance?
Its value is 6.8855 fold over vehicle and 4.506 fold over vehicle and 6.287 fold over vehicle.

And the “CC3 PD fold over vehicle” value (cleaved caspase-3 (CC3); RS4;11, single dose AZD0466 103 mg/kg (30mg/kg AZD4320), 8 hr)?
Its value is 52.0454 fold over vehicle and 56.5349 fold over vehicle and 45.3617 fold over vehicle.

And the “CC3 PD fold over vehicle” value (cleaved caspase-3 (CC3); RS4;11, single dose AZD0466 103 mg/kg (30mg/kg AZD4320), 24 hr)?
Its value is 82.2669 fold over vehicle and 79.7603 fold over vehicle and 78.3412 fold over vehicle.

And the “CC3 PD fold over vehicle” value (cleaved caspase-3 (CC3); RS4;11, single dose AZD0466 103 mg/kg (30mg/kg AZD4320), 48 hr)?
Its value is 33.7478 fold over vehicle and 42.9825 fold over vehicle and 23.216 fold over vehicle.

What about the “CC3 PD fold over vehicle” value (cleaved caspase-3 (CC3); RS4;11, single dose AZD0466 103 mg/kg (30mg/kg AZD4320), 72 hr) of the same substance?
The value was 7.7976 fold over vehicle and 4.512 fold over vehicle and 6.025 fold over vehicle.

And the “other cardiovascular effects” value (telemetered dogs; conscious telemetered dogs, 1-hour infusion)?
The value was “A small increase in diastolic BP, a transient and delayed-onset small increase in heart rate, a decrease in dP/dt+ (an index of cardiac contractility) and a decrease in PR interval”.

What about the “effect on QRS amplitude” value (telemetered dogs; conscious telemetered dogs, 1-hour infusion, 30 and 60 mg/kg) of the same substance?
The value was “dose-dependent decrease in QRS amplitude that returned to baseline”.

And the “NOEL (no observed effect level), cardiovascular system” value (telemetered dogs; dog)?
The value was 10 mg/kg.

What about the “improvement in cardiovascular tolerability based on dose vs AZD4320” value (telemetered dogs; dog) of the same substance?
The value was 18 fold.

What about the “effect on QRS amplitude” value (telemetered dogs; dog, 10 mg/kg AZD0466 (equivalent to 3 mg/kg AZD4320)) of the same substance?
Its value is “no effect on QRS amplitude”.

And the “Effects” value (telemetered dogs; [2])?
The value was “No effect level”.

What about the “Tolerated?” value (telemetered dogs; [2]) of the same substance?
Its value is “Yes”.

What about the “Tolerated?” value (telemetered dogs; [3]) of the same substance?
Its value is “Yes”.

And the “↓QRS amplitude (% decrease)” value (telemetered dogs; [3])?
Its value is 30%.

What about the “Effects other than QRS amplitude” value (telemetered dogs; [4]) of the same substance?
The value was “↑DBP, ↑HR, ↓dP/dt+, ↓PR interval, ↓LVEDP”.

What about the “Tolerated?” value (telemetered dogs; [4]) of the same substance?
Its value is “Yes”.

And the “↓QRS amplitude (% decrease)” value (telemetered dogs; [4])?
The value was 33%.
